Assays:
PS [1] = conditions: in the presence of serum; cited from earlier work
PS [2] = assay: ELISA binding to PS-coated plates
Experimental: The 3G4 antibody was produced by immunizing mice with autologous, PS-positive endothelial cells, as reported in Ran et al., 2005. The 3G4 antibody was tested for binding to PS in a standard ELISA in the presence and absence of serum, and was initially characterized as being “serum-independent”, i.e., an antibody that binds to PS in the absence of serum.
In a follow-on study, the binding of the 2aG4 antibody to PS was tested in an ELISA in the presence of varying concentrations of human β2GPI.
These included binding to PS in ELISAs, FACS analyses using PS-positive cells and functional assays in the form of an NFAT surrogate ADCC bioassay (Larson et al., 2013).

β2GPI [3] = target: T1, β2GPI (Homo sapiens, UniProt P02749); assay: Antibody binding to β2GPI (domain mapping)
T1 sequence (P02749 20-345): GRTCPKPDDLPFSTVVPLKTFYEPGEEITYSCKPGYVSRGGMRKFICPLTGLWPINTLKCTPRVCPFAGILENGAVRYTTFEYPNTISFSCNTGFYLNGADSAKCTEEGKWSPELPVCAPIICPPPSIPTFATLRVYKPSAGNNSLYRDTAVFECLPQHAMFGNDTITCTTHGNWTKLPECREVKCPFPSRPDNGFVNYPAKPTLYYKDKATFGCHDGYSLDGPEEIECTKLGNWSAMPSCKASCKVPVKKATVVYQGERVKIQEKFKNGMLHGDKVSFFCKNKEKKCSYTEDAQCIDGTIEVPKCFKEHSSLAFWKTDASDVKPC
Excerpt: In summary, it was shown that the 3G4 antibody binds to β2GPI at domain II and that the lipid binding region of β2GPI domain V is required for co-binding of 3G4 (and ch3G4) and β2GPI to PS exposed on cells. […] Accordingly, antibody and β2GPI co-bind to PS exposed on the outer surfaces of membranes, such as occurs on activated endothelial cells, tumor vascular endothelial cells and tumor cells, as well as on virally infected cells.

[4] = test system: HER2-negative metastatic breast cancer; assay: Bavituximab and paclitaxel in HER2-negative metastatic breast cancer; assay type: in vivo, human
Excerpt: Manageable infusion-related reactions were the most common AE related to bavituximab.

[5] = Administration to rats (safety); assay type: in vivo; conditions: doses above 10 mg/kg
[6] = test system: advanced hepatocellular carcinoma (HCC); assay: Phase II bavituximab and sorafenib in HCC; assay type: in vivo, human
Experimental: A Phase II, single institution study of bavituximab and sorafenib in advanced hepatocellular carcinoma (HCC) was conducted. […] Secondary endpoints included overall survival (OS), disease specific survival, 4 month progression free survival, safety and response rate. The study accrued 38 patients.

[7] = test system: previously-treated Stage IIIb/IV non-squamous NSCLC; assay: Phase III trial of bavituximab plus docetaxel in NSCLC; conditions: functional β2GPI ≥200 μg/mL
Excerpt: This global, double-blind Phase III trial was initiated in 2012. Selection criteria were for patients with Stage IIIb/IV non-squamous NSCLC who progressed on platinum-doublet chemotherapy (should have progressed on appropriate targeted therapy if known EGFR or ALK mutation), with ECOG PS 0-1 and prior immunotherapy allowed (ECOG is the performance status scale defined by the Eastern Cooperative Oncology Group). […] The primary endpoint was overall survival (OS) and secondary endpoints included objective response rate (Independent Central Review, ICR), progression-free survival (ICR), safety, PK, Quality of Life (LCSS) and exploratory biomarkers, including immune correlates.
OS was analyzed by VeriStrat subgroups using Kaplan-Meier statistical methods.
A single cutoff method was first used to assess the patient β2GPI data.
The initial analyses described above prompted further, extensive analyses of the data in 592 evaluable patients. These analyses used a two cutoff method (Klein & Moeschberger, 2003).
Archival tissue obtained at the time of diagnosis was requested, but not required, in the Phase III trial of Example X. Formalin-fixed paraffin-embedded (FFPE) slides were stained with antibodies for a panel of lymphoid (or tumor) cell markers, as described in Feng et al., 2015: CD3+, CD8+, FoxP3+, PD-L1+, CD163+ and CK+ (cytokeratin, an epithelial carcinoma marker) using a mutliplex (6-plex) quantitative immunohistochemistry (IHC) assay (OPAL®, PerkinElmer, Waltham, Mass., USA) and using DAPI. The PD-L1 antibody used was the rabbit anti-PD-L1 antibody termed E1L3N® XP® (Cell Signaling Technology, (CST), Danvers, Mass., Catalogue #13684; Mahoney et al., 2015). Baseline PD-L1 expression was retrospectively scored on tumor cells (TC, i.e., CK+) and PD-L1 expressing tumor cells were classified according to their percentage within the total number of tumor cells using established assays and classifications (Fehrenbacher et al., 2016), as follows: TC3≥50%; TC2≥5% and ≤50%; TC1≥1% and <5%; and TC0<1%. Cox regression models for PD-L1 IHC subgroup populations were used for correlation with OS.
Kaplan-Meier statistical methods and Cox proportional hazard models were utilized to evaluate and contrast the correlation of peripheral (and intratumoral) IFNγ levels with OS based on a data cut from the Phase III trial (Example X) dated Feb.

[8] = test system: locally advanced or metastatic breast cancer; assay: Phase II bavituximab plus docetaxel in breast cancer; assay type: in vivo, human; conditions: with docetaxel
Excerpt: This trial was also a Phase II, multicenter trial utilizing a Simon 2-stage design. […] The primary objective was to determine the ORR (CR+PR). Secondary objectives included time to tumor progression, DOR, OS and safety.
All patients received one prior chemotherapy regimen.

hepatitis C virus (HCV) [9] = assay: Phase I single intravenous infusion dose escalation study in chronic HCV; assay type: in vivo, human; conditions: for Observed Cmax: HCV patients
Experimental: A Phase I, open-label, single center, dose escalation study evaluated a single intravenous infusion of bavituximab in patients chronically infected with HCV (Example III, A).
(§1) Bavituximab was first evaluated in Phase I, open-label, dose escalation studies and Phase Ib, open-label, escalating repeat-dose studies in patients chronically infected with hepatitis C virus (HCV). […] Doses of 0.1, 0.3, 1, 3 and 6 mg/kg were administered in Phase I (30 patients; successive cohorts of 6 patients), and doses of 0.3, 1, 3 and 6 mg/kg were administered in Phase Ib (24 patients; four cohorts of 6 patients).

hepatitis C virus (HCV) [10] = assay: Phase Ib escalating repeat-dose study in chronic HCV; assay type: in vivo, human; conditions: for viral load: Phase Ib
Experimental: as §1

[11] = test system: previously untreated locally advanced or metastatic non-squamous NSCLC; assay: Phase II (PPHM 1001) paclitaxel/carboplatin with or without bavituximab; assay type: in vivo, human; conditions: bavituximab given with paclitaxel/carboplatin
[12] = Administration to monkeys (safety); assay type: in vivo
β2GPI [13] = target: T1, β2GPI; assay: Serum β2GPI levels after bavituximab, Phase Ib HCV study; assay type: in vivo; parameters: from tissue; host or cells: serum of human patients
Experimental: At the 6 mg/kg dose, β2GPI levels fell by 40% relative to the pretreatment levels, to approximately the lower limit of the normal range.

[14] = Further pharmacokinetic studies in over 120 patients with cancer or viral infections; assay type: in vivo, human
[15] = irrespective of the presence of serum; cited from earlier work
[16] = 3 mg/kg weekly with paclitaxel, 14 patients

Which “binding to anionic phospholipids (PS, PI, PA, PG, CL)” value (PS [1]) does the source give for bavituximab here?
Its value is “bind strongly to anionic phospholipids”.

What about the “binding to PS in ELISA in the absence of serum” value (PS [2]; antibody expressed in CHO cells under serum-free conditions) of the same substance?
The value was “binding to PS was lost”.

What about the “binding to phospholipids in standard ELISA” value (PS [2]; phospholipid-coated ELISA plates) of the same substance?
The value was “bound at least as well as the murine 3G4”.

What about the β2GPI domain bound (β2GPI [3]) of the same substance?
The β2GPI domain bound was “bind to domain II of β2GPI”.

What about the “median progression-free survival (PFS)” value ([4]; 3 mg/kg weekly with paclitaxel) of the same substance?
Its value is 7.3 months.

What about the “overall response rate (ORR)” value [4, 16] of the same substance?
The value was 85%.

What about the “patients having a complete response” value [4, 16] of the same substance?
Its value is 2 patients.

What about the tolerability ([4]; in combination with paclitaxel) of the same substance?
The tolerability was “well tolerated”.

What about the “most common adverse events” value ([4]; with paclitaxel) of the same substance?
The value was “Bone pain, fatigue, headache and neutropenia”.

What about the thrombogenicity ([4]; with paclitaxel) of the same substance?
The thrombogenicity was “no evidence for increased thrombogenicity”.

What about the doses safely administered [5] of the same substance?
The doses safely administered was “up to 100 mg/kg”.

And the “patients with increased infiltration of activated tumor-fighting T-cells (CD8) into the tumor microenvironment” value ([6]; after one cycle)?
Its value is “Three of the six patients”.

What about the “anorexia, all grade” value ([6]; with sorafenib) of the same substance?
The value was 24%.

What about the “diarrhea, all grade” value ([6]; with sorafenib) of the same substance?
The value was 32%.

What about the “fatigue, all grade” value ([6]; with sorafenib) of the same substance?
The value was 26%.

What about the “four month PFS” value ([6]; with sorafenib) of the same substance?
Its value is 61%.

And the “median OS (mOS)” value ([6]; with sorafenib)?
Its value is 6.2 months.

And the partial response ([6]; with sorafenib)?
Its partial response is “Two patients achieved partial response”.

What about the tolerability ([6]; with sorafenib) of the same substance?
The tolerability was “well tolerated”.

And the “grade 4 or 5 adverse events” value ([6]; with sorafenib, 38 patients)?
Its value is “no grade 4 or 5 adverse events recorded”.

What about the mOS ([7]; with subsequent IO) of the same substance?
Its mOS is “has yet to be reached”.

What about the mOS ([7]; without subsequent IO) of the same substance?
The mOS was 10.5 months.

And the “median DOR” value [8]?
The value was 6.1 months.

What about the “median PFS” value [8] of the same substance?
Its value is 7.4 months.

And the “most common TEAEs of Grade ≥3” value [8]?
Its value is “only fatigue, headache, back pain and hypertension were Grade ≥3”.

And the CR ([8]; 46 patients)?
The CR was 10.9%.

What about the PR ([8]; 46 patients) of the same substance?
Its PR is 50.0%.

And the objective response ([8]; 46 patients)?
Its objective response is 60.9%.

What about the “median OS” value ([8]; final analysis) of the same substance?
Its value is “approximately 20.7 months”.

And the “Observed Cmax” value (hepatitis C virus (HCV) [9]; 0.1 mg/kg single infusion)?
Its value is 2500 ng/mL.

And the “Observed Cmax” value (hepatitis C virus (HCV) [9]; 0.3 mg/kg single infusion)?
Its value is 5700 ng/mL.

What about the “Observed Cmax” value (hepatitis C virus (HCV) [9]; 1 mg/kg single infusion) of the same substance?
The value was 24300 ng/mL.

And the “Observed Cmax” value (hepatitis C virus (HCV) [9]; 3 mg/kg single infusion)?
The value was 75800 ng/mL.

What about the “Observed Cmax” value (hepatitis C virus (HCV) [9]; 6 mg/kg single infusion) of the same substance?
Its value is 135000 ng/mL.

And the tolerability (hepatitis C virus (HCV) [9]; Phase I and Phase Ib, 0.1 to 6 mg/kg)?
The tolerability was “all dose levels of bavituximab were well tolerated”.

And the viral load (hepatitis C virus (HCV) [9]; Phase I, all dose levels)?
Its viral load is “transient reductions in viral load”.

And the viral load (hepatitis C virus (HCV) [10]; 3 mg/kg, throughout treatment and follow-up)?
Its viral load is “consistent decreases in HCV”.

What about the viral load (hepatitis C virus (HCV) [10]; doses of 0.3, 1 and 6 mg/kg) of the same substance?
The viral load was “small decreases in viral load”.

And the “accumulation / time-dependent PK differences” value (hepatitis C virus (HCV) [10]; all dose levels, day 0 and day 10)?
Its value is “no evidence of accumulation of bavituximab or time-dependent PK differences”.

What about the mOS ([11]; functional β2GPI less than 200 μg/mL) of the same substance?
The mOS was 14.2 months.

And the mOS ([11]; functional β2GPI ≥200 μg/mL)?
Its mOS is 17.0 months.

And the “effect on β2GPI in the systemic circulation” value ([12]; 100 mg/kg)?
The value was “transiently decreased β2GPI in the systemic circulation”.

What about the doses safely administered ([12]; doses above 10 mg/kg) of the same substance?
Its doses safely administered is “up to 100 mg/kg”.

What about the “change of β2GPI levels” value (β2GPI [13]; 1 mg/kg) of the same substance?
The value was “virtually unchanged”.

What about the “time for β2GPI to return to pre-treatment level” value (β2GPI [13]; 3 mg/kg) of the same substance?
Its value is no more than 24 h.

What about the “time for β2GPI to recover to baseline” value (β2GPI [13]; 6 mg/kg) of the same substance?
Its value is 3 days.

And the PK linearity ([14]; doses 0.1 to 6 mg/kg)?
The PK linearity was “linear single-dose and multiple-dose PK characteristics”.

And the “time by which distribution phase is essentially complete” value ([14]; where observed)?
Its value is no more than 6 h.

And the “binding to neutral phospholipids PC, SM or PE” value [15]?
Its value is “no detectable binding”.

Reference: patent US11571459B2, “Methods for treating cancer using PS-targeting antibodies with immuno-oncology agents” (ONCXERNA THERAPEUTICS, INC., priority 2017, dated 2023)
